Data from patent publication US20220339270A1.

Target: ePHF tau (tau in the form of paired helical filaments, immobilized on plate) (UniProt P10636)
Test: ePHF tau ELISA; […]; rep 1

Chain of ePHF tau (tau in the form of paired helical filaments, immobilized on plate) (P10636 other isoform, or with tags, fused parts or gaps limits assumed): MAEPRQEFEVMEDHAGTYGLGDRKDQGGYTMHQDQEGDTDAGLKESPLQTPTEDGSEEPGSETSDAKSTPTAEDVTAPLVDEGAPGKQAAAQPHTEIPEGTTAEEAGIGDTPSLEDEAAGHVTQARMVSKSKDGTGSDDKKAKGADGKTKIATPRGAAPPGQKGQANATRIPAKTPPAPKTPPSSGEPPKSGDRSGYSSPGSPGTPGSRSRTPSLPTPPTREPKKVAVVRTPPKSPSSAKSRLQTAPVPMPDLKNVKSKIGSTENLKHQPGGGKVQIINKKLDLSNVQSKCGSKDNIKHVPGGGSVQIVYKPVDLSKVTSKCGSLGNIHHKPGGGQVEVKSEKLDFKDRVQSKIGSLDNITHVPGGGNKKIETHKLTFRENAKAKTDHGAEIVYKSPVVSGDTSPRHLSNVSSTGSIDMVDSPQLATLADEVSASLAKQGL

Substance	OD450
Tau12 (BioLegend monoclonal murine anti-tau, 6-18; cat #806501) (antibody)	1
Tau-13 (BioLegend monoclonal murine anti-tau, 20-35; cat #835201) (antibody)	0.6

The remaining lines, values ahead:

OD450	Substance
0.4	Tau5 (BioLegend monoclonal murine anti-tau, 210-230; cat #806401) (antibody)
0.1	Tau46 (BioLegend monoclonal murine anti-tau, 404-421; cat #806601) (antibody)

Target: ePHF tau (tau in the form of paired helical filaments, immobilized on plate) (UniProt P10636)
Test: ePHF tau ELISA; […]; rep 2

Substance	OD450
Tau12 (BioLegend monoclonal murine anti-tau, 6-18; cat #806501) (antibody)	1
Tau-13 (BioLegend monoclonal murine anti-tau, 20-35; cat #835201) (antibody)	0.7

Second part, the substance after the results:

OD450	Substance
0.4	Tau5 (BioLegend monoclonal murine anti-tau, 210-230; cat #806401) (antibody)
0	Tau46 (BioLegend monoclonal murine anti-tau, 404-421; cat #806601) (antibody)

Target: ePHF tau (tau in the form of paired helical filaments, immobilized on plate) (UniProt P10636)
Test: ePHF tau ELISA; 0.5 ng/mL; rep 1

Substance	OD450
Tau12 (BioLegend monoclonal murine anti-tau, 6-18; cat #806501) (antibody)	0.4
Tau-13 (BioLegend monoclonal murine anti-tau, 20-35; cat #835201) (antibody)	0.2

Second part, the substance after the results:

OD450	Substance
0.1	Tau5 (BioLegend monoclonal murine anti-tau, 210-230; cat #806401) (antibody)
0	Tau46 (BioLegend monoclonal murine anti-tau, 404-421; cat #806601) (antibody)

Target: ePHF tau (tau in the form of paired helical filaments, immobilized on plate) (UniProt P10636)
Test: ePHF tau ELISA; 0.5 ng/mL; rep 2

Substance	OD450
Tau12 (BioLegend monoclonal murine anti-tau, 6-18; cat #806501) (antibody)	0.4
Tau-13 (BioLegend monoclonal murine anti-tau, 20-35; cat #835201) (antibody)	0.2

More lines, now with the values ahead:

OD450	Substance
0.1	Tau5 (BioLegend monoclonal murine anti-tau, 210-230; cat #806401) (antibody)
0	Tau46 (BioLegend monoclonal murine anti-tau, 404-421; cat #806601) (antibody)

Target: ePHF tau (tau in the form of paired helical filaments, immobilized on plate) (UniProt P10636)
Test: ePHF tau ELISA; 4.1 ng/mL; rep 1

Substance	OD450
Tau12 (BioLegend monoclonal murine anti-tau, 6-18; cat #806501) (antibody)	2.2
Tau-13 (BioLegend monoclonal murine anti-tau, 20-35; cat #835201) (antibody)	1.4

Next, values leading:

OD450	Substance
0.8	Tau5 (BioLegend monoclonal murine anti-tau, 210-230; cat #806401) (antibody)
0.2	Tau46 (BioLegend monoclonal murine anti-tau, 404-421; cat #806601) (antibody)

Target: ePHF tau (tau in the form of paired helical filaments, immobilized on plate) (UniProt P10636)
Test: ePHF tau ELISA; 4.1 ng/mL; rep 2

Substance	OD450
Tau12 (BioLegend monoclonal murine anti-tau, 6-18; cat #806501) (antibody)	2.4
Tau-13 (BioLegend monoclonal murine anti-tau, 20-35; cat #835201) (antibody)	1.8

More lines, now with the values ahead:

OD450	Substance
0.9	Tau5 (BioLegend monoclonal murine anti-tau, 210-230; cat #806401) (antibody)
0.1	Tau46 (BioLegend monoclonal murine anti-tau, 404-421; cat #806601) (antibody)

Target: ePHF tau (tau in the form of paired helical filaments, immobilized on plate) (UniProt P10636)
Test: ePHF tau ELISA; 12.3 ng/mL; rep 1

Substance	OD450
Tau12 (BioLegend monoclonal murine anti-tau, 6-18; cat #806501) (antibody)	3.2
Tau-13 (BioLegend monoclonal murine anti-tau, 20-35; cat #835201) (antibody)	2.8

The next lines start with the values.

OD450	Substance
1.7	Tau5 (BioLegend monoclonal murine anti-tau, 210-230; cat #806401) (antibody)
0.4	Tau46 (BioLegend monoclonal murine anti-tau, 404-421; cat #806601) (antibody)

Target: ePHF tau (tau in the form of paired helical filaments, immobilized on plate) (UniProt P10636)
Test: ePHF tau ELISA; 12.3 ng/mL; rep 2

Substance	OD450
Tau12 (BioLegend monoclonal murine anti-tau, 6-18; cat #806501) (antibody)	3.2
Tau-13 (BioLegend monoclonal murine anti-tau, 20-35; cat #835201) (antibody)	3.1

Continued, values first:

OD450	Substance
2.1	Tau5 (BioLegend monoclonal murine anti-tau, 210-230; cat #806401) (antibody)
0.4	Tau46 (BioLegend monoclonal murine anti-tau, 404-421; cat #806601) (antibody)

Target: ePHF tau (tau in the form of paired helical filaments, immobilized on plate) (UniProt P10636)
Test: ePHF tau ELISA; 37.0 ng/mL; rep 1

Substance	OD450
Tau12 (BioLegend monoclonal murine anti-tau, 6-18; cat #806501) (antibody)	3.2
Tau-13 (BioLegend monoclonal murine anti-tau, 20-35; cat #835201) (antibody)	3.2

Further lines, results first:

OD450	Substance
2.6	Tau5 (BioLegend monoclonal murine anti-tau, 210-230; cat #806401) (antibody)
0.9	Tau46 (BioLegend monoclonal murine anti-tau, 404-421; cat #806601) (antibody)

Target: ePHF tau (tau in the form of paired helical filaments, immobilized on plate) (UniProt P10636)
Test: ePHF tau ELISA; 37.0 ng/mL; rep 2

Substance	OD450
Tau12 (BioLegend monoclonal murine anti-tau, 6-18; cat #806501) (antibody)	3.2
Tau-13 (BioLegend monoclonal murine anti-tau, 20-35; cat #835201) (antibody)	3.2

Second part, the substance after the results:

OD450	Substance
2.9	Tau5 (BioLegend monoclonal murine anti-tau, 210-230; cat #806401) (antibody)
1	Tau46 (BioLegend monoclonal murine anti-tau, 404-421; cat #806601) (antibody)

Target: ePHF tau (tau in the form of paired helical filaments, immobilized on plate) (UniProt P10636)
Test: ePHF tau ELISA; 111.1 ng/mL; rep 1

Substance	OD450
Tau12 (BioLegend monoclonal murine anti-tau, 6-18; cat #806501) (antibody)	3.2
Tau-13 (BioLegend monoclonal murine anti-tau, 20-35; cat #835201) (antibody)	3.2

The remaining lines, values ahead:

OD450	Substance
3.2	Tau5 (BioLegend monoclonal murine anti-tau, 210-230; cat #806401) (antibody)
1.7	Tau46 (BioLegend monoclonal murine anti-tau, 404-421; cat #806601) (antibody)

Target: ePHF tau (tau in the form of paired helical filaments, immobilized on plate) (UniProt P10636)
Test: ePHF tau ELISA; 111.1 ng/mL; rep 2

Substance	OD450
Tau12 (BioLegend monoclonal murine anti-tau, 6-18; cat #806501) (antibody)	3.2
Tau-13 (BioLegend monoclonal murine anti-tau, 20-35; cat #835201) (antibody)	3.2

More lines, now with the values ahead:

OD450	Substance
3.2	Tau5 (BioLegend monoclonal murine anti-tau, 210-230; cat #806401) (antibody)
2	Tau46 (BioLegend monoclonal murine anti-tau, 404-421; cat #806601) (antibody)

Target: ePHF tau (tau in the form of paired helical filaments, immobilized on plate) (UniProt P10636)
Test: ePHF tau ELISA; 333.3 ng/mL; rep 1

Substance	OD450
Tau12 (BioLegend monoclonal murine anti-tau, 6-18; cat #806501) (antibody)	3.2
Tau-13 (BioLegend monoclonal murine anti-tau, 20-35; cat #835201) (antibody)	3.2

Further lines, results first:

OD450	Substance
3.2	Tau5 (BioLegend monoclonal murine anti-tau, 210-230; cat #806401) (antibody)
2.3	Tau46 (BioLegend monoclonal murine anti-tau, 404-421; cat #806601) (antibody)

Target: ePHF tau (tau in the form of paired helical filaments, immobilized on plate) (UniProt P10636)
Test: ePHF tau ELISA; 333.3 ng/mL; rep 2

Substance	OD450
Tau12 (BioLegend monoclonal murine anti-tau, 6-18; cat #806501) (antibody)	3.1
Tau-13 (BioLegend monoclonal murine anti-tau, 20-35; cat #835201) (antibody)	3.2

More lines, now with the values ahead:

OD450	Substance
3.2	Tau5 (BioLegend monoclonal murine anti-tau, 210-230; cat #806401) (antibody)
2.6	Tau46 (BioLegend monoclonal murine anti-tau, 404-421; cat #806601) (antibody)

Target: ePHF tau (tau in the form of paired helical filaments, immobilized on plate) (UniProt P10636)
Test: ePHF tau ELISA; 1000.0 ng/mL; rep 1

Substance	OD450
Tau12 (BioLegend monoclonal murine anti-tau, 6-18; cat #806501) (antibody)	3.2
Tau-13 (BioLegend monoclonal murine anti-tau, 20-35; cat #835201) (antibody)	3.2

The remaining lines, values ahead:

OD450	Substance
3.2	Tau5 (BioLegend monoclonal murine anti-tau, 210-230; cat #806401) (antibody)
2.8	Tau46 (BioLegend monoclonal murine anti-tau, 404-421; cat #806601) (antibody)

Target: ePHF tau (tau in the form of paired helical filaments, immobilized on plate) (UniProt P10636)
Test: ePHF tau ELISA; 1000.0 ng/mL; rep 2

Substance	OD450
Tau12 (BioLegend monoclonal murine anti-tau, 6-18; cat #806501) (antibody)	3.1
Tau-13 (BioLegend monoclonal murine anti-tau, 20-35; cat #835201) (antibody)	3.2

Second part, the substance after the results:

OD450	Substance
3.2	Tau5 (BioLegend monoclonal murine anti-tau, 210-230; cat #806401) (antibody)
2.9	Tau46 (BioLegend monoclonal murine anti-tau, 404-421; cat #806601) (antibody)

Target: wild-type tau (Tau441) (human) (UniProt P10636)
Sequence (P10636 other isoform, or with tags, fused parts or gaps limits assumed): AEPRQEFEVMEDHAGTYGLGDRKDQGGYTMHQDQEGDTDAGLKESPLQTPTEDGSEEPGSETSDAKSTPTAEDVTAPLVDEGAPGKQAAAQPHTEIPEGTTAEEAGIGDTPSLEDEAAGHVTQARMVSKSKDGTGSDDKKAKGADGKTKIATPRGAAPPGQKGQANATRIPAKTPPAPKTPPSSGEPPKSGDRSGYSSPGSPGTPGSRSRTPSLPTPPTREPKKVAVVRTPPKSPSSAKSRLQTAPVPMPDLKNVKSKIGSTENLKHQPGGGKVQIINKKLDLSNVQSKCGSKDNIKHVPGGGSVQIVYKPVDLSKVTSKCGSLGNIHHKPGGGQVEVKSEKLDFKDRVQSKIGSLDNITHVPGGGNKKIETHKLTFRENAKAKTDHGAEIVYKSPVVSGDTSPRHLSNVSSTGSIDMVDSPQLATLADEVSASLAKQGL
Test: ELISA, Tau441 on plate; antibody at […]

OD450 [OD450]	Substance
0.1	2G9.F10 (anti-tau, 157-168; BioLegend cat #824601) (antibody)

Target: wild-type tau (Tau441) (human) (UniProt P10636)
Test: ELISA, Tau441 on plate; antibody at 4.1 ng/mL

OD450 [OD450]	Substance
0.1	2G9.F10 (anti-tau, 157-168; BioLegend cat #824601) (antibody)

Target: wild-type tau (Tau441) (human) (UniProt P10636)
Test: ELISA, Tau441 on plate; antibody at 12.3 ng/mL

OD450 [OD450]	Substance
0.2	2G9.F10 (anti-tau, 157-168; BioLegend cat #824601) (antibody)

Target: wild-type tau (Tau441) (human) (UniProt P10636)
Test: ELISA, Tau441 on plate; antibody at 37.0 ng/mL

OD450 [OD450]	Substance
0.5	2G9.F10 (anti-tau, 157-168; BioLegend cat #824601) (antibody)

Target: wild-type tau (Tau441) (human) (UniProt P10636)
Test: ELISA, Tau441 on plate; antibody at 111.1 ng/mL

OD450 [OD450]	Substance
0.9	2G9.F10 (anti-tau, 157-168; BioLegend cat #824601) (antibody)

Target: wild-type tau (Tau441) (human) (UniProt P10636)
Test: ELISA, Tau441 on plate; antibody at 333.3 ng/mL

OD450 [OD450]	Substance
1.6	2G9.F10 (anti-tau, 157-168; BioLegend cat #824601) (antibody)

Target: wild-type tau (Tau441) (human) (UniProt P10636)
Test: ELISA, Tau441 on plate; antibody at 1000.0 ng/mL

OD450 [OD450]	Substance
2.2	2G9.F10 (anti-tau, 157-168; BioLegend cat #824601) (antibody)

Target: wild-type tau (Tau441) (human) (UniProt P10636)
Test: ELISA, Tau441 on plate; antibody at 0.0 ng/mL [sic]

OD450 [OD450]	Substance
0	2G9.F10 (anti-tau, 157-168; BioLegend cat #824601) (antibody)
